Among the data in article PMC9534319 (2022) are Kd values, retold here.

For the test, the target named is h219 (VH9/VK2). The test is described as follows: BLI. On the technique in general: BLI is a label-free optical method that tracks binding on a fibre tip over time.

B1: his tagged human LAIR1 recombinant protein (receptor)
chain: QEEDLPRPSISAEPGTVIPLGSHVTFVCRGPVGVQTFRLERDSRSTYNDTEDVSQASPSESEARFRIDSVREGNAGLYRCIYYKPPKWSEQSDYLELLVKESSGGPDSPDTEPGSSAGPTQRPSDNSHNEHAPASQGLKAEHLY
In turn, B1 returned a Kd of 0.66 nM.

As usually defined, the Kd is the free concentration of one partner at which half of the binding sites on the other are occupied at equilibrium, for simple one-to-one binding. The low end stands for higher affinity, the high end for lower affinity.
